Experimental data taken from US20200270321A1 (Hoffmann-La Roche, published 2020).

Assays:
cyCD19 ECD = molecular target: T1, cyCD19 ECD (cynomolgus); assay: binding to CD19 ECD; method not stated
T1 construct: extracellular domain; also called cynomolgus CD19 ectodomain

[1] = molecular target: T2, monomeric human CD19 Fc (kih) fusion protein (human, UniProt P0DOX5 223-449 = IgG part); assay: SPR (ProteOn XPR36), Fab from bacterial supernatant captured by anti-human Fab, monomeric CD19-Fc as analyte
T2 construct: also called monomeric CD19-Fc
Method: In order to further characterize the ELISA-positive clones, the off-rate was measured by surface plasmon resonance and compared with the parental humanized clone 8B8.
For this experiment, 7000 RU of polyclonal anti-human Fab antibody were immobilized on all 6 channels of a GLM chip by Amine coupling (NaAcetate pH4.5, 25 μl/min, 240 s) (vertical orientation). Each antibody-containing bacterial supernatant was filtered and 2-fold diluted with PBS, and then injected for 360s at 25 μl/minute to achieve immobilization levels of between 100 and 400 response units (RU) in vertical orientation. […] Regeneration was performed by two pulses of 10 mM glycine pH 1.5 and 50 mM NaOH for 30 s at 90 ul/min (horizontal orientation). Dissociation rate constants (koff) were calculated using a simple one-to-one Langmuir binding model in ProteOn Manager v3.1 software by simultaneously fitting the sensorgrams.

huCD19 ECD = molecular target: T3, huCD19 ECD (human, UniProt P15391 20-291); assay: binding to CD19 ECD; method not stated
T3 construct: also called human CD19 ectodomain
T3 sequence: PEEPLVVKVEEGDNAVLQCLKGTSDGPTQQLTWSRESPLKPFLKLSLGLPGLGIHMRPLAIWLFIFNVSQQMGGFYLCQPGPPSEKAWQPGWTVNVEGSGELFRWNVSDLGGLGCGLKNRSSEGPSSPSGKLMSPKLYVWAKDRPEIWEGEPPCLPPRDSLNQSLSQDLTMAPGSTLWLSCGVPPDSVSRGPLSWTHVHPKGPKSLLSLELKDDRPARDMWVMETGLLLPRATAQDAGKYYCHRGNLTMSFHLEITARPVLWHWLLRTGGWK

[2] = molecular target: T4, human fibroblast activation protein (huFAP) on cells (human, UniProt Q12884 1-760); assay: flow cytometry on WM-266-4 cells; PE anti-human IgG Fc-gamma F(ab')2; MFI
T4 construct: Transfected in NIH/3T3-huFAP clone 39; also called NIH/3T3-huFAP clone 39; WM266-4

[3] = molecular target: T5, human 4-1BB (CD137) on cells (human, UniProt Q07011 24-255); assay: flow cytometry on activated human T cells, gate CD4+; PE anti-human IgG Fc-gamma F(ab')2; MFI baseline corrected
T5 construct: whole, on cells; also called 4-1BB+ human T cells
T5 sequence (Q07011 24-255): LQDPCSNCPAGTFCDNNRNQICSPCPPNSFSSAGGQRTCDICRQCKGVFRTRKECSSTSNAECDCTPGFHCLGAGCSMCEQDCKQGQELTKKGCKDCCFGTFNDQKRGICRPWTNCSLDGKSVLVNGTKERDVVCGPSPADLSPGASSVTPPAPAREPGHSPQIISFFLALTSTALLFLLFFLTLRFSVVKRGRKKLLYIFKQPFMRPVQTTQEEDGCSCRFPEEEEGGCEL

[4] = molecular target: T4, human fibroblast activation protein …; assay: flow cytometry on MV-3 cells; PE anti-human IgG Fc-gamma F(ab')2; MFI

B1: wild-type humanized anti-human CD19 antibody 8B8 (antibody, V domains shown)
VH: QVQLVQSGAEVKKPGASVKVSCKASGYTFTDYIMHWVRQAPGQGLEWMGYINPYNDGSKYTEKFNGRVTMTSDTSISTAYMELSRLRSDDTAVYYCARGTYYYGSALFDYWGQGTTVTVSS
VL: DIVMTQTPLSLSVTPGQPASISCKSSQSLENSNGNTYLNWYLQKPGQSPQLLIYRVSKRFSGVPDRFSGSGSGTDFTLKISRVEAEDVGVYYCLQLTHVPYTFGQGTKLEIK
notes: also called wt 8B8
B1 gave an EC50 (cyCD19 ECD) of 0.313 µg/mL.

B2: affinity-matured 8B8-derived clone 2B11, Fab in bacterial supernatant (Fab, V domains shown)
VH: QVQLVQSGAEVKKPGASVKVSCKASGYTFTDYIMHWVRQAPGQGLEWMGYINPYNDGSKYTEKFQGRVTMTSDTSISTAYMELSRLRSDDTAVYYCARGTYYYGPQLFDYWGQGTTVTVSS
VL: DIVMTQTPLSLSVTPGQPASISCKSSQSLETSTGTTYLNWYLQKPGQSPQLLIYRVSKRFSGVPDRFSGSGSGTDFTLKISRVEAEDVGVYYCLQLLEDPYTFGQGTKLEIK
notes: tested as a soluble Fab from bacterial supernatant; also called 8B8-2B11; CD19 (8B8-2B11)
For B2, the koff [1] was 4.37e-06 s⁻¹.

B3: humanized anti-human CD19 antibody clone 8B8-018 (antibody, V domains shown)
VH: QVQLVQSGAEVKKPGASVKVSCKASGYTFTDYIMHWVRQAPGQGLEWMGYINPYNDGSKYTEKFQGRVTMTSDTSISTAYMELSRLRSDDTAVYYCARGTYYYGSALFDYWGQGTTVTVSS
VL: DIVMTQTPLSLSVTPGQPASISCKSSQSLENPNGNTYLNWYLQKPGQSPQLLIYRVSKRFSGVPDRFSGSGSGTDFTLKISRVEAEDVGVYYCLQLTHVPYTFGQGTKLEIK
notes: also called CD19 (8B8-018)
B3 gave an EC50 (cyCD19 ECD) of 0.255 µg/mL and an EC50 (huCD19 ECD) of 0.084 µg/mL.

B4: bivalent binding FAP (28H1)-targeted huIgG1 P329G LALA (antibody, V domains shown)
VH: EVQLLESGGGLVQPGGSLRLSCAASGFTFSSHAMSWVRQAPGKGLEWVSAIWASGEQYYADSVKGRFTISRDNSKNTLYLQMNSLRAEDTAVYYCAKGWLGNFDYWGQGTLVTVSS
VL: EIVLTQSPGTLSLSPGERATLSCRASQSVSRSYLAWYQQKPGQAPRLLIIGASTRATGIPDRFSGSGSGTDFTLTISRLEPEDFAVYYCQQGQVIPPTFGQGTKVEIK
notes: the rest is said to be human IgG1 P329G LALA; also called FAP(28H1)-targeted hu IgG1 P329G LALA control molecule
For B4, the “EC50 (read off the curve)” value [2] was ~1 nM, the binding result [3] was “no binding (tested: about 300 nM)” and the “EC50 (read off the curve)” value [4] was ~1 nM.
